Source: paper PMC2198831 (The Journal of Cell Biology, 2001)
Numbering of substitutions follows the chain as printed. Values belong to the binder of their own block, whether it stands above or below them.

Key:
[1] = target: T1, yeast capping protein Cap1/2p, purified (S. cerevisiae, UniProt P28495;P13517); assay: native gel or EMSA
T1 sequence 1: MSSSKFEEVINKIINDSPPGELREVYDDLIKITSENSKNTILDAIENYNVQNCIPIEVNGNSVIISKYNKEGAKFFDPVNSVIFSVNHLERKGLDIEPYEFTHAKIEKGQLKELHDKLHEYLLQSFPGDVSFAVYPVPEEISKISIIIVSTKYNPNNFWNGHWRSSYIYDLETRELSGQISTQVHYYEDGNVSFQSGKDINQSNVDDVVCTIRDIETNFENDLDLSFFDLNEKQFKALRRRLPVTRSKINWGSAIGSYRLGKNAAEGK
T1 sequence 2: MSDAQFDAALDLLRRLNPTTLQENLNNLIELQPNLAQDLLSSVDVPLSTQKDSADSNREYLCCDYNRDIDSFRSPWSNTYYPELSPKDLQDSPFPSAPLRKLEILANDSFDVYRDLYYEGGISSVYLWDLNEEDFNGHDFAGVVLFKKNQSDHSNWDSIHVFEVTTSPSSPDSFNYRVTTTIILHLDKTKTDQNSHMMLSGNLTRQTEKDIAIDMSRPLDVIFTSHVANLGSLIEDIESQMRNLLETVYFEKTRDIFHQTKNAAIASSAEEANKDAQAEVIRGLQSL

yeast actin monomers = yeast actin monomers (S. cerevisiae, UniProt P60010 1-375); assay: native gel or EMSA

binding result [1]: binds
binding result (yeast actin monomers): binds
B1: yeast twinfilin (Twf1p), wild type, purified recombinant (natural protein)
chain: MSTQSGIVAEQALLHSLNENLSADGIVIIIAKISPDSTSVHQTQVARSFEELVQLASQEREPLYIFYKPEGLDKYFFVSFIPDGSPVRSRMLYASTKNTLARQVGSNSLSTEQPLITDAQDLVDLKNFDSARPAGQNKPLTHDEEMQIEINKQQALLRKNTSVKLVSQDSASPLSLTFRVNSEKPINEILDSEGKNLIIFQIDPSNETIQIVQSDTCPSVDELYIDLPGPSYTIFRQGDSSFFIYSCPSGSKVKDRMIYASNKNGFINYLKNDQKIAFSKVVEIGDFVELDKSLLMATNKEDSLDHGSNPDLPNKSNLKFNKPKGPLRKRRT

binding result [1]: binds
B2: Twf1-3p mutant yeast twinfilin (alanines in both ADF-H domains) (natural protein)
chain: B1 chain with R88A, R90A, K254A, R256A
